Data taken from patent US9090897B2, “Production of IFN-lambda by conventional dendritic cells” (Bavarian Nordic A/S, priority 2009, dated 2015).
“Also recorded” adds a separate entry of the source.

How the values were obtained:
eCD8α cDCs = test: In vitro stimulation of FL expanded ex-vivo isolated splenic eCD8α cDCs, IFN-λ; format: cell-based, mouse; settings: 5×10^5/ml, IL-3+GM-CSF+IL-4+IFN-γ, 100 μg/ml, 18 h
Description: (§1) FIG. 13 depicts that in vivo FL expanded CD8α+cDCs and eCD8α cDCs selectively produce IFN-λ to poly AU in vitro. Highly purified FL expanded ex-vivo isolated splenic 5×10^5/ml were stimulated in the presence of IL-3+GM-CSF+IL-4+IFN-γ with either poly IC (100 μg/ml) or poly AU (100 μg/ml). After 18 h supernatants were analyzed for IFN-λ.
(§2) To see if the IFN-λ production to poly AU seen in vivo would correspond with the same cells as in response to poly IC we enhanced the amount of DC in mice with FL treatment and sorted CD8α+ cDCs, eCD8α cDCs and CD11b+/CD172a+cDCs. Those cells were stimulated with poly IC or poly AU.

CD8α+ cDCs = test: In vitro stimulation of FL expanded ex-vivo isolated splenic CD8α+ cDCs, IFN-λ; format: cell-based, mouse; settings: 5×10^5/ml, IL-3+GM-CSF+IL-4+IFN-γ, 100 μg/ml, 18 h
Description: as §1, §2

mice [1] = test: In vivo challenge (i.v.), serum IFN-λ and IFN-α by ELISA; set-up: species or system mouse; settings: for IFN-λ production to poly IC after growth factor treatment: FL-KO mice treated 7 days with 10 μg growth factor per day, then 100 μg poly IC i.v., 3-4 h
Description: Mice were injected i.v. into the lateral tail vein with 100 μg poly IC (Axxora) and serum was collected 3-4 h after challenge. Sera were pre-diluted 1/5, […] was analyzed by ELISA as described (Hochrein et al., 2004). IFN-λ was determined by an IFN-λ3 (IL-28B) ELISA (R&D Systems).

mice [2] = test: as above; set-up: species or system mouse
splenic CD8+ cDC = test: In vitro stimulation of sorted splenic CD8+ cDCs, cytokines in supernatant (IFN-λ ELISA, IL-12p70 FlowCytomix); format: cell-based, mouse; settings: for IFN-λ production in combination with poly IC: stimulus added together with poly IC, IL-3 and GM-CSF, 18 h; for effect of cytokine on IFN-λ production / effect of cytokine on IL-12p70 production: combinatory stimulus poly IC+CpG-1668, cytokine 10 ng/ml
Text: DC subsets were isolated from pooled mouse spleens as described (Vremec et al., 2007). Briefly, spleens were chopped, digested with collagenase (Worthington Biochemical) and DNase (Roche) at room temperature, and treated with EDTA. Low-density cells were enriched by density centrifugation; non-DC lineage cells were coated with mAbs (anti-CD3, KT3-1.1; anti-Thy-1, T24/31.7; anti Gr-1, 1A8; anti-CD19, ID3; anti-erythrocytes, TER119 and anti-NK cells, DX5) and depleted using anti-rat Ig magnetic beads (Qiagen). Dead cells were excluded by propidium iodide staining. cDC populations were sorted based on the expression of CD11c, CD45RA, CD4, CD8a and CD172a and pDCs were purified based on CD11c, CD45RA, and CD172a (all BD Biosciences) expression. Cell sorting was performed on a FACS Aria instrument (BD Biosciences).
Cells were stimulated in vitro with single TLR agonists or combinations thereof containing 10 μg/ml Pam3Cys (InvivoGen), 100 μg/ml poly IC (Axxora), 10 μg/ml LPS (E. coli; Sigma-Aldrich or Axxora), 10 μg/ml R848 (Axxora), 1 μM CpG-1668 or CpG-2216 (TIB-Molbiol), 1 μg/ml profilin of toxoplasma (Axxora). The recombinant cytokines mouse-IL-3, mouse-IL-4, rat-IFN-γ (PeproTech) and mouse-GM-CSF (Tebu-Bio) (10 ng/ml each) were added as indicated. The addition of IL-3 and GM-CSF was based on previous observations that GM-CSF promoted the production of IL-12p70 and that the combination of IL-3 and GM-CSF increased virus induced IFN-λ production in pDCs and cDCs (Hochrein et al., 2000; Hochrein et al., 2004). As source of a parapoxvirus Zylexis, which is used for veterinary purposes was purchased from a pharmacy. HSV-1, in replication deficient form known as disc HSV-1 (HSV-1d) was used as described (Hochrein et al., 2004). IFN-λ in supernatants was analyzed by ELISA and IL-12p70 was determined by FlowCytomix bead assay (Bender Medsystems) according to manufacturer's protocol.

**Q.** What does the source list for “polyadenylic:polyuridylic acid [poly AU]”?
**A.** IFN-λ production (eCD8α cDCs): able to produce IFN-λ; IFN-λ production (CD8α+ cDCs): able to produce IFN-λ; IFN-λ in the sera (mice [1]; mice, 100 or 500 μg i.v., sera after 3-4 h): induces IFN-λ; also recorded: induced IFN-λ in the sera of mice; systemic IFN-λ (mice [2]; mice, poly AU injection): not detectable

**Q.** How did the “IFN-λ production in combination with poly IC” value (splenic CD8+ cDC) turn out when `CCOCc1nc2c(N)nc3ccccc3c2n1CC(C)(C)O` [R848] was run?
**A.** Its value is “unable to support poly IC induced IFN-λ production”.

**Q.** `CCCCCCCCCCCCCCCC(=O)N[C@@H](CSC[C@@H](COC(=O)CCCCCCCCCCCCCCC)OC(=O)CCCCCCCCCCCCCCC)C(=O)O` [Pam3Cys] was tested. Which “IFN-λ production in combination with poly IC” value (splenic CD8+ cDC) did it give?
**A.** Its value is “synergistically increased IFN-λ production”.

B1: IFN-γ: recombinant cytokine rat-IFN-γ (protein, UniProt P01581 23-156, looked up)
Interferon gamma: QGTLIESLESLKNYFNSSSMDAMEGKSLLLDIWRNWQKDGNTKILESQIISFYLRLFEVLKDNQAISNNISVIESHLITNFFSNSKAKKDAFMSIAKFEVNNPQIQHKAVNELIRVIHQLSPESSLRKRKRSRC
**Q.** Which results are given for B1?
**A.** effect of cytokine on IFN-λ production (splenic CD8+ cDC): enhanced the production of IFN-λ; effect of cytokine on IL-12p70 production (splenic CD8+ cDC): little effects on IL-12p70 production

B2: IL-4: recombinant cytokine mouse-IL-4 (protein, UniProt P07750 21-140, looked up)
Interleukin-4: HIHGCDKNHLREIIGILNEVTGEGTPCTEMDVPNVLTATKNTTESELVCRASKVLRIFYLKHGKTPCLKKNSSVLMELQRLFRAFRCLDSSISCTMNESKSTSLKDFLESLKSIMQMDYS
**Q.** How did the “effect of cytokine on IFN-λ production” value (splenic CD8+ cDC) turn out when B2 was run?
**A.** Its value is “not IFN-λ production”.

**Q.** And the “effect of cytokine on IL-12p70 production” value (splenic CD8+ cDC)?
**A.** Its value is “increased IL-12p70”.

B3: M-CSF: M-CSF receptor ligand, growth factor (protein, UniProt P09603 33-554, looked up)
Macrophage colony-stimulating …: EEVSEYCSHMIGSGHLQSLQRLIDSQMETSCQITFEFVDQEQLKDPVCYLKKAFLLVQDIMEDTMRFRDNTPNAIAIVQLQELSLRLKSCFTKDYEEHDKACVRTFYETPLQLLEKVKNVFNETKNLLDKDWNIFSKNCNNSFAECSSQDVVTKPDCNCLYPKAIPSSDPASVSPHQPLAPSMAPVAGLTWEDSEGTEGSSLLPGEQPLHTVDPGSAKQRPPRSTCQSFEPPETPVVKDSTIGGSPQPRPSVGAFNPGMEDILDSAMGTNWVPEEASGEASEIPVPQGTELSPSRPGGGSMQTEPARPSNFLSASSPLPASAKGQQPADVTGTALPRVGPVRPTGQDWNHTPQKTDHPSALLRDPPEPGSPRISSLRPQGLSNPSTLSAQPQLSRSHSSGSVLPLGELEGRRSTRDRRSPAEPEGGPASEGAARPLPRFNSVPLTDTGHERQSEGSFSPQLQESVFHLLVPSVILVLLAVGGLLFYRWRRRSHQEPQRADSPLEQPEGSPLTQDDRQVELPV
**Q.** B3 was tested. Which “IFN-λ production to poly IC after growth factor treatment” value (mice [1]) did it give?
**A.** Its value is “able to increase IFN-λ production to poly IC”.

B4: FL: Fms-related tyrosine kinase 3 ligand, growth factor involved in development of DCs (protein, UniProt P49771 27-235, looked up)
Fms-related tyrosine kinase 3 …: TQDCSFQHSPISSDFAVKIRELSDYLLQDYPVTVASNLQDEELCGGLWRLVLAQRWMERLKTVAGSKMQGLLERVNTEIHFVTKCAFQPPPSCLRFVQTNISRLLQETSEQLVALKPWITRQNFSRCLELQCQPDSSTLPPPWSPRPLEATAPTAPQPPLLLLLLLPVGLLLLAAAWCLHWQRTRRRTPRPGEQVPPVPSPQDLLLVEH
**Q.** With B4 as the molecule, how does the “IFN-λ production to poly IC after growth factor treatment” value (mice [1]) read?
**A.** The value was “not only restored, but even increased, their IFN-λ producing capacity above WT level”.

**Q.** And the “systemic IFN-λ response to poly IC challenge after growth factor treatment” value (mice [2]; FL treated WT mice)?
**A.** Its value is “greatly increased systemic IFN-λ response”.
